Assay results as given in article PMC9499683, “Isolation and Characterization of Homologically Expressed Methanol Dehydrogenase from Methylorubrum extorquens AM1 for the Development of Bioelectrocatalytical Systems” (International Journal of Molecular Sciences, 2022).

Columns and labels:
Experiment in all cases: purified protein
Settings in all cases: pH 9.0, 30 °C, free enzyme, ammonium needed as activator
[1] = substrate: CCCCO; format: biochemical, Methylorubrum extorquens
[2] = substrate: CO; format: biochemical, Methylorubrum extorquens
[3] = substrate: CCCCCO; format: biochemical, Methylorubrum extorquens
[4] = substrate: CCO

B1: MDH-His6-tag (recombinant PQQ-dependent methanol dehydrogenase, PQQ-MDH) (Methylorubrum extorquens AM1) (protein)
chain: NDKLVELSKSDDNWVMPGKNYDSNNFSDLKQINKGNVKQLRPAWTFSTGLLNGHEGAPLVVDGKMYIHTSFPNNTFALGLDDPGTILWQDKPKQNPAARAVACCDLVNRGLAYWPGDGKTPALILKTQLDGNVAALNAETGETVWKVENSDIKVGSTLTIAPYVVKDKVIIGSSGAELGVRGYLTAYDVKTGEQVWRAYATGPDKDLLLASDFNIKNPHYGQKGLGTGTWEGDAWKIGGGTNWGWYAYDPGTNLIYFGTGNPAPWNETMRPGDNKWTMTIFGRDADTGEAKFGYQKTPHDEWDYAGVNVMMLSEQKDKDGKARKLLTHPDRNGIVYTLDRTDGALVSANKLDDTVNVFKSVDLKTGQPVRDPEYGTRMDHLAKDICPSAMGYHNQGHDSYDPKRELFFMGINHICMDWEPFMLPYRAGQFFVGATLNMYPGPKGDRQNYEGLGQIKAYNAITGDYKWEKMERFAVWGGTMATAGDLVFYGTLDGYLKARDSDTGDLLWKFKIPSGAIGYPMTYTHKGTQYVAIYYGVGGWPGVGLVFDLADPTAGLGAVGAFKKLANYTQMGGGVVVFSLDGKGPYDDPNVGEWKSAAK
notes: full-length mxaF ORF with leader peptide and C-terminal His6 tag, expressed from pCM160 in M. extorquens AM1; small subunit co-purified from host; Ni-NTA; PQQ and Ca2+; with Methanol dehydrogenase [cytochrome c] subunit 2
Question: How did the Km [1] turn out when B1 was run?
Answer: 1900 ± 200 µM

Question: And the Vmax [1]?
Answer: 2.7 µmol/min/mg

Question: And the Km [2]?
Answer: 360 ± 70 µM

Question: What about the Vmax [2] of the same protein?
Answer: 4.2 µmol/min/mg

Question: And the Km [3]?
Answer: 1400 ± 100 µM

Question: And the Vmax [3]?
Answer: 2.8 µmol/min/mg

Question: And the Km [4]?
Answer: 610 ± 60 µM

Question: And the Vmax [4]?
Answer: 2.9 µmol/min/mg
